Experiment [1] addresses LIGHT without residues 81-84, stably expressed on EL4 cells (EL4-NC-LIGHT). Put plainly: cell-based or functional assay.
The target of experiment [2] is T1, Human LIGHT stably expressed on EL4 cells (EL4-LIGHT) (human, UniProt O43557 1-240).
T1 construct: whole, on cells; also called membrane LIGHT
Nature of the experiment: flow cytometry, EL4-LIGHT cells. On the procedure: The EC50 of the 7 mAbs were calculated from binding to EL4-LIGHT cells (FIG. 1). […] Non-linear regression analysis was performed to determine the functional binding affinity measurement or EC50 for each mAb. A range of functional affinities was observed.
For orientation: Flow cytometry measures light scatter and fluorescence of single cells or particles in a stream.

The target of experiment [3] is Full length LIGHT G188A on HEK293FF cells (Homo sapiens (Human), UniProt O43557 1-240). Put plainly: flow cytometry, HEK293FF, mAb at EC50.
Sequence of Full length LIGHT G188A on HEK293FF cells (O43557 whole entry G188A): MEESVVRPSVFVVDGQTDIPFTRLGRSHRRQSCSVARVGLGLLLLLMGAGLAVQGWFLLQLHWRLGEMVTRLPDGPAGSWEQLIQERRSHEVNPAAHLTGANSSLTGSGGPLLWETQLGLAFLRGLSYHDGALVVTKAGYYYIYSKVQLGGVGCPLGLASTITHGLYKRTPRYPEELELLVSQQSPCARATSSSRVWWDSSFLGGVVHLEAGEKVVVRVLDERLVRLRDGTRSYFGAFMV
Experiment [4] has as its target Full length LIGHT R189A on HEK293FF cells (Homo sapiens (Human), UniProt O43557 1-240). Put plainly: flow cytometry, HEK293FF, mAb at EC50.
In experiment [5] the target is Full length LIGHT A190S on HEK293FF cells (Homo sapiens (Human), UniProt O43557 1-240). Put plainly: flow cytometry, HEK293FF, mAb at EC50.
Sequence of Full length LIGHT A190S on HEK293FF cells (O43557 whole entry A190S): as the sequence (O43557 whole entry G188A) above, with A188G, A190S counted along it
Experiment [6] addresses Full length LIGHT T191A on HEK293FF cells (Homo sapiens (Human), UniProt O43557 1-240). Nature of the experiment: flow cytometry, HEK293FF, mAb at EC50.
In experiment [7] the target is Full length LIGHT S192A on HEK293FF cells (Homo sapiens (Human), UniProt O43557 1-240). Put plainly: flow cytometry, HEK293FF, mAb at EC50.
Sequence of Full length LIGHT S192A on HEK293FF cells (O43557 whole entry S192A): as the sequence (O43557 whole entry G188A) above, with A188G, S192A counted along it
The target of experiment [8] is Full length LIGHT S193A on HEK293FF cells (Homo sapiens (Human), UniProt O43557 1-240). Put plainly: flow cytometry, HEK293FF, mAb at EC50.
The target of experiment [9] is Full length LIGHT S194A on HEK293FF cells (Homo sapiens (Human), UniProt O43557 1-240). Put plainly: flow cytometry, HEK293FF, mAb at EC50.
Sequence of Full length LIGHT S194A on HEK293FF cells (O43557 whole entry S194A): as the sequence (O43557 whole entry G188A) above, with A188G, S194A counted along it
Experiment [10] deals with Full length LIGHT R195A on HEK293FF cells (Homo sapiens (Human), UniProt O43557 1-240). Nature of the experiment: flow cytometry, HEK293FF, mAb at EC50.
Sequence of Full length LIGHT R195A on HEK293FF cells (O43557 whole entry R195A): as the sequence (O43557 whole entry G188A) above, with A188G, R195A counted along it
Experiment [11] has as its target Full length LIGHT V196A on HEK293FF cells (Homo sapiens (Human), UniProt O43557 1-240). Nature of the experiment: flow cytometry, HEK293FF, mAb at EC50.
For experiment [12], the target named is Full length LIGHT W197A on HEK293FF cells (Homo sapiens (Human), UniProt O43557 1-240). Nature of the experiment: flow cytometry, HEK293FF, mAb at EC50.
Sequence of Full length LIGHT W197A on HEK293FF cells (O43557 whole entry W197A): as the sequence (O43557 whole entry G188A) above, with A188G, W197A counted along it
Experiment [13] deals with Full length LIGHT W198A on HEK293FF cells (Homo sapiens (Human), UniProt O43557 1-240). Put plainly: flow cytometry, HEK293FF, mAb at EC50.
Sequence of Full length LIGHT W198A on HEK293FF cells (O43557 whole entry W198A): as the sequence (O43557 whole entry G188A) above, with A188G, W198A counted along it
Experiment [14] deals with T1, Human LIGHT stably expressed on EL4 …. Nature of the experiment: flow cytometry, EL4-LIGHT cells, against F19 and F23.
For experiment [15] the target is unchanged. Put plainly: KD calculated from the EC50 on EL4-LIGHT cells (Table 7).
Experiment [16] has the same target. Put plainly: flow cytometry competition on EL4-LIGHT cells, co-incubation 40 min 4 C; blocked ligand DcR3-Fc-AF647 0.8 ug/ml; displacement is partial. On the procedure:
EL4-LIGHT cells were co-incubated with Alexa Fluor 647 conjugated DcR3-Fc (DcR3-Fc-AF647; 0.8 μg/ml) and graded concentrations (31 μg/ml to 128 μg/ml) of anti-membrane LIGHT antibodies (3B04, 03D12 and 02B111) for 40 min at 4° C. A control, of a mAb that binds both soluble and membrane LIGHT was included (F19 from EP2292663). The samples were washed three times and flow cytometry analysis was performed. Specific mean fluorescence intensity (MFI) obtained from the binding of DcR3-Fc-AF647 to LIGHT on EL4 cells were used to determine the levels of competition binding.

T1 sequence (O43557 whole entry): as the sequence (O43557 whole entry G188A) above, with A188G counted along it
Sequence of Full length LIGHT R189A on HEK293FF cells (O43557 whole entry R189A): as the sequence (O43557 whole entry G188A) above, with A188G, R189A counted along it
Sequence of Full length LIGHT T191A on HEK293FF cells (O43557 whole entry T191A): as the sequence (O43557 whole entry G188A) above, with A188G, T191A counted along it

B1: 3B04 chimeric IgG4 mAb (antibody, V domains shown)
VH: QVQLQQPGAELVRPGASVTLSCKASGYTFTDYEMHWVKQTPVHGLEWIGEIDPETGDTAYSQKFKGKATLTADKSSSTAYMEFRSLTSEDSAVYYCSRETDYFFDYWGQGTTLTVSS
VL: DIQMTQTPASLSASVGETVTITCGASENIYGALNWYQRKQGKSPQLLIYGATNLADGMSSRFSGSGSGRQYSLKISSLHPDDFATYYCQNVLTTPWTFGGGTKLEIK
notes: also called Parental 3B04
As to B1, in [1], the “IC50, inhibition of IL-8 secretion, HT-29 + EL4-NC-LIGHT cells” value turned out to be 0.2 nM. The EC50 (commonly the concentration at which the effect is half-maximal) in [2] worked out at 0.095 nM. Further, the “% of WT binding” value in [3] was determined as 6%; in [4] it was 0%; in experiment [5] it was 68%; in experiment [6], 2%; in experiment [7] it was 88%; in experiment [8], 0%. The “% of WT binding” value in [9] turned out to be 0%; in [10] it was 1%; in experiment [11] it was 80%; in experiment [12], 0%; in experiment [13], 81%. Besides, the “binding ratio, mAb to LIGHT trimer” value in experiment [14] came out at 1 mAb per LIGHT trimer. The Kd (as a rule, a measure of binding affinity in units of concentration) in experiment [15] was 0.1 nM. Also, the IC50 (commonly the concentration that gives 50% inhibition) in experiment [16] is 0.02 µg/mL.

B2: 3D12 chimeric IgG4 mAb (antibody, V domains shown)
VH: QVQLQQPGAELVRPGASVTLSCKASDYTFTDSEIHWVKQTPVHGLEWIGEIDPETGGTAYNQKFKGKATLTADKSSSTAYMELRSLTSEDSAVYYCSRETDYFFDYWGQGTTLTVSS
VL: DIQMTQSPASLSASVGETVTITCGASENIYGALNWYQRKQGKSPQLLIYGATNLADGMSSRFSGSGSGRQYSLKISSLHPDDVATYYCQNVLSTPWTFGGGTKLEIK
notes: Chimeric human IgG4 (S-to-P, L-to-E) with human CL, as m1; also called Parental 3D12; 03D12
On to B2, for which the “IC50, inhibition of IL-8 secretion, HT-29 + EL4-NC-LIGHT cells” value in experiment [1] was found to be 0.1 nM. The molecule also had an EC50 in experiment [2] of 0.07 nM. The “% of WT binding” value came to 20% in experiment [3]; 1% in experiment [4]; 82% in experiment [5]; 8% in experiment [6]; 84% in experiment [7]; 0% in experiment [8]. The “% of WT binding” value in experiment [9] is 2%; in experiment [10] it was 25%; in [11] it was 70%; in experiment [12], 1%; in [13] it was 83%. Further, in experiment [14], the “binding ratio, mAb to LIGHT trimer” value stood at 1 mAb per LIGHT trimer. In addition, the dissociation constant Kd in experiment [15] was 0.07 nM. In experiment [16], the concentration for half-maximal inhibition (IC50) was 0.031 µg/mL.

The values are drawn from US20210284747A1 (CAPELLA BIOSCIENCE, published 2021).
